Reference: patent US20230055408A1 (JIANGSU HENGRUI MEDICINE, published 2023)

T1: human CEA protein on the cell surface (human, UniProt P06731 35-685)
T1 sequence (looked up): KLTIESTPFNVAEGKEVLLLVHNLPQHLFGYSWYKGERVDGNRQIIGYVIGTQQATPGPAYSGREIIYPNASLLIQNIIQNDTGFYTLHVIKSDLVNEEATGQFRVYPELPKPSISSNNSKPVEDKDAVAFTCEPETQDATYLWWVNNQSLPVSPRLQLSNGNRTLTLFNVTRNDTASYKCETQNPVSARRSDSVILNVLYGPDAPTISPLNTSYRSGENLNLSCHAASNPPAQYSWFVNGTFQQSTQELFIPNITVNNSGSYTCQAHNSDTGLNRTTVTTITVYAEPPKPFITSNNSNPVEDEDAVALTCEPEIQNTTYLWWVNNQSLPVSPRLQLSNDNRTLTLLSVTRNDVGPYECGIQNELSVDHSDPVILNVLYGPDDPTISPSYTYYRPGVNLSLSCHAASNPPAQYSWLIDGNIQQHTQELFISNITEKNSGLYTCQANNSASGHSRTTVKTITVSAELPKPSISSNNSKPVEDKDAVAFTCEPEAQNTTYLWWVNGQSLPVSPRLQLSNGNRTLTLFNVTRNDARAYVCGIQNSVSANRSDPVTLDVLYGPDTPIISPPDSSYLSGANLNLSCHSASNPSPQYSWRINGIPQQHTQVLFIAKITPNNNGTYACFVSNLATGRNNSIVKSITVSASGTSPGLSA

T2: monkey CEA expressed on CHO cell surface (cynomolgus monkey)
T2 construct: also called cynoCEA-CHO; monkey CEA proteins on the cell surface
T2 chain: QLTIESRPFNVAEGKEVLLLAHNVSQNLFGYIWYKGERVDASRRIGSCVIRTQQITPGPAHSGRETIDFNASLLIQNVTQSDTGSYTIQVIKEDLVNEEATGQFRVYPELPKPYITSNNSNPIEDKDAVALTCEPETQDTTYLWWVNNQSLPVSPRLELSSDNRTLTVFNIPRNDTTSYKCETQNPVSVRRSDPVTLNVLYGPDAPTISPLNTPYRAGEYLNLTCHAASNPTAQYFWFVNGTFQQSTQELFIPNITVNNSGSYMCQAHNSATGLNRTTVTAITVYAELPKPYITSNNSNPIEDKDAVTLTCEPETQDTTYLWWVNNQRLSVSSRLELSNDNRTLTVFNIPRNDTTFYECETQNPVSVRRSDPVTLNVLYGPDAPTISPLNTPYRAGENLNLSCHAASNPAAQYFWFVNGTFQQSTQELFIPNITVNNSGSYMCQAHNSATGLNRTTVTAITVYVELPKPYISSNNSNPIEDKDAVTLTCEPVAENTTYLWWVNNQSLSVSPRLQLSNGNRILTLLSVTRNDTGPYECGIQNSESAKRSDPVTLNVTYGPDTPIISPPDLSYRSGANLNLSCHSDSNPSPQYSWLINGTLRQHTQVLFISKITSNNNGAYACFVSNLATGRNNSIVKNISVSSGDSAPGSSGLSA


What was measured:
[1] = molecular target: T1, human CEA protein on the cell surface; assay: cell-based or functional assay
[2] = molecular target: T1, human CEA protein on the cell surface; assay: FACS, MKN45 cells
Method: (§1) In order to detect the binding of the antibody to the CEA protein on the cell surface, the binding activity of the antibody was determined by FACS using cells expressing CEA on the cell surface. Cells were harvested and centrifuged at 400 g at 4° C. for 5 min. Pre-cooled PBS containing FBS at final concentration 10% was added, and the mixture was centrifuged at 400 g at 4° C. for 5 min; the procedures were repeated twice. The cells were seeded into a 96-well plate at 10⁵ cells/well, and 100 μL of gradient diluted antibody solution was added to each well. The plate was incubated at 4° C. for 60 min and centrifuged, and the supernatant was removed. 250 μL of pre-cooled PBS containing FBS at final concentration 10% was added to each well to resuspend the cells, and the suspension was centrifuged at 400 g at 4° C. for 5 min, followed by the removal of the supernatant; the procedures were repeated twice. 50 μL of 1:200 diluted secondary antibody Alexa Fluor@488 goat anti-human IgG (H+L) (Lifetechologies, Cat #A11013) was added. […] 250 μL of pre-cooled PBS containing FBS at final concentration 10% was added to each cell to resuspend the cells, and the suspension was centrifuged at 400 g at 4° C. for 5 min; the procedures were repeated twice. 100 μL of pre-cooled PBS was added to each well to resuspend the cells. The plate was analyzed by a flow cytometer (BD, FACSverse) for fluorescence signal values.

[3] = molecular target: T2, monkey CEA expressed on CHO cell surface; assay: FACS, cynoCEA-CHO cells
Method: as §1

Binder | IC50 of inhibition of cell proliferation, LS174T (with moderate CEA expression) [1] [nM] | IC50 of inhibition of cell proliferation, MKN45 (with high CEA expression) [1] [nM] | EC50 [2] [nM] | EC50 [3] [nM]
Hu67-14-2-A (DAR 6.41) (antibody, human IgG1, kappa, V domains shown, see heavy chain; linker-toxin 2-A coupled to cysteine thiols of the TCEP-reduced antibody; mean DAR 6.41 per antibody) VH: EVQLVQSGAEVKKPGESLKISCKGSGYSFTDYHMNWVKQMPGKGLEWMGDINPDIGGTSYNQNFKGKVTISVDKSISTAYLQWSSLKASDTAMYYCARWDFDSFANWGQGTLVTVSS VL: DIQMTQSPSSLSASVGDRVTITCRASESVSIIGTNLIHWYQQKPGKAPKLLIYHASNLETGVPSRFSGSGSGTDFTLTISSLQPEDFATYYCLQSRKIPYTFGGGTKVEIKR | 9.24 | 3.33 |  | 
Hu67-5 (antibody, human IgG1, kappa, V domains shown) VH: EVQLVQSGAEVKKPGASVKVSCKASGYTFTDYHMNWVRQAPGQRLEWMGDINPDIGGTSYNQNFKGRVTITRDTSASTAYMELSSLRSEDTAVYYCARWDFDSFANWGQGTLVTVSS VL: DIVMTQSPSSLSASVGDRVTITCRASESVSIIGTNLIHWYQQKPGKPPKLLIYHASNLETGVPSRFSGSGSGTDFTLTISSLQPEDFATYYCLQSRKIPYTFGGGTKVEIKR |  |  | 2.86 | 3.5
Hu67-9 (antibody, human IgG1, kappa, V domains shown) VH: EVQLVQSGAEVKKPGESLKISCKGSGYSFTDYHMNWVRQMPGKGLEWMGDINPDIGGTSYNQNFKGQVTISADKSISTAYLQWSSLKASDTAMYYCARWDFDSFANWGQGTLVTVSS VL: DIQMTQSPSSLSASVGDRVTITCRASESVSIIGTNLIHWYQQKPGKAPKLLIYHASNLETGVPSRFSGSGSGTDFTLTISSLQPEDFATYYCLQSRKIPYTFGGGTKVEIKR |  |  | 3.75 | 3.72
Hu67-7 (antibody, V domains shown) VH: EVQLVQSGAEVKKPGESLKISCKGSGYSFTDYHMNWVRQMPGKGLEWMGDINPDIGGTSYNQNFKGQVTISADKSISTAYLQWSSLKASDTAMYYCARWDFDSFANWGQGTLVTVSS VL: EIVMTQSPATLSVSPGERATLSCRASESVSIIGTNLIHWYQQKPGQAPRLLIYHASNLETGIPARFSGSGSGTEFTLTISSLQSEDFAVYYCLQSRKIPYTFGGGTKVEIKR |  |  | 3.88 | 7.2
Hu67-11 (antibody, human IgG1, kappa, V domains shown) VH: EVQLVQSGAEVKKPGESLKISCKGSGYSFTDYHMNWVKQMPGKGLEWMGDINPDIGGTSYNQNFKGKVTISVDKSISTAYLQWSSLKASDTAMYYCARWDFDSFANWGQGTLVTVSS VL: DIVMTQSPDSLAVSLGERATINCRASESVSIIGTNLIHWYQQKPGQPPKLLIYHASNLETGVPDRFSGSGSGTDFTLTISSLQAEDVAVYYCLQSRKIPYTFGGGTKVEIKR |  |  | 2.26 | 4.66
Hu67-1 (antibody, human IgG1, kappa, V domains shown) VH: EVQLVQSGAEVKKPGASVKVSCKASGYTFTDYHMNWVRQAPGQRLEWMGDINPDIGGTSYNQNFKGRVTITRDTSASTAYMELSSLRSEDTAVYYCARWDFDSFANWGQGTLVTVSS VL: DIVMTQSPDSLAVSLGERATINCRASESVSIIGTNLIHWYQQKPGQPPKLLIYHASNLETGVPDRFSGSGSGTDFTLTISSLQAEDVAVYYCLQSRKIPYTFGGGTKVEIKR |  |  | 2.46 | 4.57
Hu67-4 (antibody, human IgG1, kappa, V domains shown) VH: EVQLVQSGAEVKKPGASVKVSCKASGYTFTDYHMNWVRQAPGQRLEWMGDINPDIGGTSYNQNFKGRVTITRDTSASTAYMELSSLRSEDTAVYYCARWDFDSFANWGQGTLVTVSS VL: DIQMTQSPSSLSASVGDRVTITCRASESVSIIGTNLIHWYQQKPGKAPKLLIYHASNLETGVPSRFSGSGSGTDFTLTISSLQPEDFATYYCLQSRKIPYTFGGGTKVEIKR |  |  | 3.25 | 3.06
Hu67-12 (antibody, V domains shown) VH: EVQLVQSGAEVKKPGESLKISCKGSGYSFTDYHMNWVKQMPGKGLEWMGDINPDIGGTSYNQNFKGKVTISVDKSISTAYLQWSSLKASDTAMYYCARWDFDSFANWGQGTLVTVSS VL: EIVMTQSPATLSVSPGERATLSCRASESVSIIGTNLIHWYQQKPGQAPRLLIYHASNLETGIPARFSGSGSGTEFTLTISSLQSEDFAVYYCLQSRKIPYTFGGGTKVEIKR |  |  | 3.2 | 5.31
Hu67-10 (antibody, human IgG1, kappa, V domains shown) VH: EVQLVQSGAEVKKPGESLKISCKGSGYSFTDYHMNWVRQMPGKGLEWMGDINPDIGGTSYNQNFKGQVTISADKSISTAYLQWSSLKASDTAMYYCARWDFDSFANWGQGTLVTVSS VL: DIVMTQSPSSLSASVGDRVTITCRASESVSIIGTNLIHWYQQKPGKPPKLLIYHASNLETGVPSRFSGSGSGTDFTLTISSLQPEDFATYYCLQSRKIPYTFGGGTKVEIKR |  |  | 3.19 | 5.37
Hu103-22 (antibody, human IgG1, lambda) heavy: not shown light: ELVVTQSPSASASLGASVKLTCTLSSQHSTYTIEWYQQQPEKPPRYVMELKKDGSHSTGDGIPDRFSGSSSGAERYLTISSLQSEDEADYICGVGNTIKEQFVYVFGGGTKLTVLGQPKANPTVTLFPPSSEELQANKATLVCLISDFYPGAVTVAWKADGSPVKAGVETTKPSKQSNNKYAASSYLSLTPEQWKSHRSYSCQVTHEGSTVEKTVAPTECS |  |  | 3.64 | 1.02
Hu103-23 (antibody, human IgG1, lambda) heavy: not shown light: ELVVTQSPSASASLGASVKLTCTLSSQHSTYTIEWYQQQPEKPPRYVMELKKDGSHSTGDGIPDRFSGSSSGADRYLTISSLQSEDEADYICGVGNTIKEQFVYVFGGGTKLTVLGQPKANPTVTLFPPSSEELQANKATLVCLISDFYPGAVTVAWKADGSPVKAGVETTKPSKQSNNKYAASSYLSLTPEQWKSHRSYSCQVTHEGSTVEKTVAPTECS |  |  | 2.9 | 0.93
Hu103-32-2-A (DAR 6.94) (antibody, human IgG1, lambda, V domains shown, see heavy chain; linker-toxin 2-A coupled to cysteine thiols of the TCEP-reduced antibody; mean DAR 6.94 per antibody) VH: EVQLVQSGSELKKPGASVKVSCKASGYTFTTYGVIWVRQAPGQGLEWMGWINTYSGVPTYASDFKGRFVFSLDTSVSTAYLQISSLKAEDTAVYYCARKKTLTTVTPWFAYWGQGTLVTVSS VL: ELVLTQSPSASASLGASVKLTCTLSSQHSTYTIEWYQQQPEKGPRYVMELKKDGSHSTGEGIPDRFSGSSSGAERYLTISSLQSEDEADYYCGVGNTIKEQFVYVFGGGTKLTVLG | 2.37 | 3 |  | 
Hu47-10 (antibody, human IgG1, kappa, V domains shown) VH: EVQLVQSGSELKKPGASVKVSCKASGYTFTTYGMSWVKQAPGQGLKWMGWINTYSGVPTYADDFKGRFVFSLDTSVSTAYLQISSLKAEDTAVYYCARRGNYGRWDFDVWGQGTTVTVSS VL: EIVLTQSPDFQSVTPKEKVTITCSVSSTISSSNLHWYQQKPDQSPKPLIYGTSNLASGVPSRFSGSGSGTDYTLTINSLEAEDAATYYCQQWSIYPLTFGQGTKLEIKR |  |  | 2.27 | 0.27
Hu47-6 (antibody, human IgG1, kappa, V domains shown) VH: EVQLVQSGSELKKPGASVKVSCKASGYTFTTYGMSWVRQAPGQGLKWMGWINTYSGVPTYADDFKGRFVFSLDTSVSTAYLQISSLKAEDTAVYYCARRGNYGRWDFDVWGQGTTVTVSS VL: EIVLTQSPDFQSVTPKEKVTITCSVSSTISSSNLHWYQQKPDQSPKPLIYGTSNLASGVPSRFSGSGSGTDYTLTINSLEAEDAATYYCQQWSIYPLTFGQGTKLEIKR |  |  | 2.5 | 0.3
